Biological target: T1, ARNO CC-domain (Homo sapiens, UniProt Q99418)
T1 construct: ii) 1-60aa, coiled-coil (CC) domain; made in house; host or cells: E. coli BL21(DE3)
T1 sequence (Q99418 1-60): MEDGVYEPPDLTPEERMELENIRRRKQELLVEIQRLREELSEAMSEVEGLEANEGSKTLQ
Assay: GST pull-down of in vitro translated a2N with ARNO CC-domain
Format: binding
Conditions: Western blot anti-a2N
Procedure: The purified recombinant GST-ARNO(wt) and GST-tagged ARNO domain constructs ([…]) were incubated with 10 μl of in vitro translated 6His-a2N recombinant protein at 4° C. for 2 hours in 500 μl of binding buffer (10 mM HEPES, 1 mM EDTA, 1 mM DTT, 100 mM NaCl, 10% glycerol, 0.1% NP-40) with gentle rotation. Then the interacting recombinant proteins were immobilized on glutathione beads by incubation with 50 μl of 50% glutathione Sepharose 4B slurry for 2 hours at 4° C. The beads were collected by centrifugation and washed 5 times with 500 μl ice-cold binding buffer. Interacting proteins were eluted by boiling in SDS-PAGE sample buffer for 10 min at 95° C., resolved by SDS-PAGE and analyzed by Western blotting using polyclonal anti-a2N antibodies. […]
To examine the ability of these well-defined and functionally distinct domains of ARNO to interact with a2N1-402, full-length ARNO(wt) and its four domains were cloned separately for bacterial expression of recombinant proteins (FIG. 3). […] Interacting proteins were detected by western blot analysis with a2-specific antibodies as described above.

interaction of a2N with ARNO CC-domain: no interaction
B1: a2N: recombinant N-terminal cytosolic tail, amino acid residues 1-402 of mouse V-ATPase a2-subunit (protein)
chain: MGSLFRSESMCLAQLFLQSGTAYECLSALGEKGLVQFRDLNQNVSSFQRKFVGEVKRCEELERILVYLVQEITRADIPLPEGEASPPAPPLKHVLEMQEQLQKLEVELREVTKNKEKLRKNLLELVEYTHMLRVTKTFLKRNVEFEPTYEEFPALENDSLLDYSCMQRLGAKLGFVSGLIQQGRVEAFERMLWRACKGYTIVTYAELDECLEDPETGEVIKWYVFLISFWGEQIGHKVKKICDCYHCHIYPYPNTAEERREIQEGLNTRIQDLYTVLHKTEDYLRQVLCKAAESVCSRVVQVRKMKAIYHMLNMCSFDVTNKCLIAEVWCPEVDLPGLRRALEEGSRESGATIPSFMNTIPTKETPPTLIRTNKFTEGFQNIVDAYGVGSYREVNPALFTII
modifications: left off: small tags and cut ends
notes: recombinant N-terminal cytosolic tail, amino acid residues 1-402 of mouse V-ATPase a2-subunit
